From patent publication US20150274781A1 (UNIVERSITAET LEIPZIG, published 2015)
Where no end group is shown, it is not given here. [ ]: non-standard residue; d: D form. d1Nal = N[C@H](Cc1cccc2ccccc12)C(=O)O; Phg = N[C@H](C(=O)O)c1ccccc1; Nva = CCC[C@H](N)C(=O)O

Target: T1, human ghrelin receptor (human, UniProt Q92847 1-366)
Assay: cell-based or functional assay

T1 sequence (Q92847 whole entry): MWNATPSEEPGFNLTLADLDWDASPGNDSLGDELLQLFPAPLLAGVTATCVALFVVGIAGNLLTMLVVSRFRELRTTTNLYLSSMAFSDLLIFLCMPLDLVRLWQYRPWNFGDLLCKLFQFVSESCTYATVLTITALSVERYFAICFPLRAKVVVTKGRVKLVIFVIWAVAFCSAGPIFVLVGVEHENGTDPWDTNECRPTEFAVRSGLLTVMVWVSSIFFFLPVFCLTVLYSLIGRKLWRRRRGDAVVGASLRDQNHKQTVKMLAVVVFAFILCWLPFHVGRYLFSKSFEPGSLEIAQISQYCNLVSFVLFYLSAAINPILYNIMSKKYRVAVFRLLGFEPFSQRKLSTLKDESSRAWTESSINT

Binder	EC50, inverse agonistic activity, inositol trisphosphate turnover assay in COS-7 cells transfected with the ghrelin receptor	Emax [Δ %], inverse agonistic activity, inositol trisphosphate turnover assay
KXFXLL (D-Phe at 2; D-Trp at 4; C-terminal amide) [K-(D-Phe)-FwLL-NH2]	241 nM	62 Δ %
KXFXLL (4-benzoyl-D-phenylalanine (D-Bpa) at 2; D-Trp at 4; C-terminal amide) [K-(D-Bpa)-FwLL-NH2]	169 nM	67 Δ %
KXFXLL (4,4'-biphenyl-D-alanine (D-Bip) at 2; D-Trp at 4; C-terminal amide) [K-(D-Bip)-FwLL-NH2]	184 nM	82 Δ %
KXFXLL (tert-butyl-D-phenylalanine (D-tBf) at 2; D-Trp at 4; C-terminal amide) [K-(D-tBf)-FwLL-NH2]	624 nM	76 Δ %
K[dW]F[dW]LL-NH2 (N-terminus assumed; SMILES CC(C)C[C@H](NC(=O)[C@H](CC(C)C)NC(=O)[C@@H](Cc1c[nH]c2ccccc12)NC(=O)[C@H](Cc1ccccc1)NC(=O)[C@@H](Cc1c[nH]c2ccccc12)NC(=O)[C@@H](N)CCCCN)C(N)=O) [KwFwLL-NH2]	45.6 nM	37 Δ %
KXFXLL (1-naphthyl-D-alanine (D-1-Nal) at 2; D-Trp at 4; C-terminal amide) [K-(D-1-Nal)-FwLL-NH2]	3.4 nM	64 Δ %
KXFXLL (3,3-diphenyl-D-alanine (D-Dip) at 2; D-Trp at 4; C-terminal amide) [K-(D-Dip)-FwLL-NH2]	13.1 nM	87 Δ %
KXFXLL (2-naphthyl-D-alanine (D-2-Nal) at 2; D-Trp at 4; C-terminal amide) [K-(D-2-Nal)-FwLL-NH2]	161 nM	66 Δ %
KXFXLL (beta-(3-benzothienyl)-D-alanine (D-Bth) at 2; D-Trp at 4; C-terminal amide) [K-(D-Bth)-FwLL-NH2]		81 Δ %

Target: T1, human ghrelin receptor
Assay: cell-based or functional assay
Remark: another data set of the same source

Binder	EC50, agonistic activity, inositol trisphosphate turnover assay in COS-7 cells transfected with the ghrelin receptor
KXFXLL (D-Trp at 2; 1-naphthyl-D-alanine (D-1-Nal) at 4; C-terminal amide) [KwF-(D-1-Nal)-LL-NH2]	17.9 nM
KXFXLL (D-Trp at 2; 2-naphthyl-D-alanine (D-2-Nal) at 4; C-terminal amide) [KwF-(D-2-Nal)-LL-NH2]	12.6 nM

Target: T1, human ghrelin receptor
Assay: cell-based or functional assay
Remark: another data set of the same source

Binder	EC50, inverse agonistic activity, inositol trisphosphate turnover assay in COS-7 cells transfected with the ghrelin receptor	Emax [Δ %], inverse agonistic activity, inositol trisphosphate turnover assay	x-fold (EC50) compared to K-(D-1-Nal)-FwLL-NH2	x-fold (Emax) compared to K-(D-1-Nal)-FwLL-NH2
KXXXLL (1-naphthyl-D-alanine (D-1-Nal) at 2; 3-cyclohexyl-L-alanine (L-Cha) at 3; D-Trp at 4; C-terminal amide) [K-(D-1-Nal)-(L-Cha)-wLL-NH2]	96.8 nM	85 Δ %	28.5 fold	1.3 fold
K[d1Nal][Phg][dW]LL-NH2 (N-terminus assumed; SMILES CC(C)C[C@H](NC(=O)[C@H](CC(C)C)NC(=O)[C@@H](Cc1c[nH]c2ccccc12)NC(=O)[C@@H](NC(=O)[C@@H](Cc1cccc2ccccc12)NC(=O)[C@@H](N)CCCCN)c1ccccc1)C(N)=O) [K-(D-1-Nal)-(L-Phg)-wLL-NH2]	> 1000 nM		> 290 fold	
KXXXLL (1-naphthyl-D-alanine (D-1-Nal) at 2; D-Phe at 3; D-Trp at 4; C-terminal amide) [K-(D-1-Nal)-(D-Phe)-wLL-NH2]	120 nM	58 Δ %	35.2 fold	0.9 fold
KXXXLL (1-naphthyl-D-alanine (D-1-Nal) at 2; tert-butyl-L-phenylalanine (L-tBf) at 3; D-Trp at 4; C-terminal amide) [K-(D-1-Nal)-(L-tBf)-wLL-NH2]	124 nM	84 Δ %	36.5 fold	1.3 fold
KXFXLL (1-naphthyl-D-alanine (D-1-Nal) at 2; D-Trp at 4; C-terminal amide) [K-(D-1-Nal)-FwLL-NH2]	3.4 nM	64 Δ %		
K[d1Nal][Nva][dW]LL-NH2 (N-terminus assumed; SMILES CCC[C@H](NC(=O)[C@@H](Cc1cccc2ccccc12)NC(=O)[C@@H](N)CCCCN)C(=O)N[C@H](Cc1c[nH]c2ccccc12)C(=O)N[C@@H](CC(C)C)C(=O)N[C@@H](CC(C)C)C(N)=O) [K-(D-1-Nal)-(L-Nva)-wLL-NH2]	498 nM	71 Δ %	146 fold	1.1 fold
